The labels stand for the following.
B1: TPR t1 (parent)
chain: GACCAAUCUGCCCUCAGAGCUCGAGAACAUCUUCGGAUGCAGAGGAGGCAGGCUUCGGUGGCGCGAUAGCGCCAACGUCCUCAACCUCCAAUGCAUCCCACCACAUGAUGAUGCCUGAAGAGCCUUGGUUUUUUG

In this data set the parent is B1. The data set is described as follows: polymerase ribozyme fitness, log enrichment relative to wild type (log ratio); higher = more active; in vitro selection for triplet polymerase activity. The gist of the method:
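Genotype fitness is the logarithm of its enrichment divided by wild-type enrichment, using inverse-variance-weighted averages of replicates. That logarithm is base 2. Enrichment was measured by Illumina sequencing of input and output libraries from one triplicate in vitro selection round, with frozen incubation at −7 °C, on PCR-built, transcribed mutant libraries of each subunit of a heterodimeric triplet polymerase ribozyme, retaining genotypes with ≥10 input reads and ≥1 read per output.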
GACCAAUCUGCCCUCAGAGCUCGAGAACAUCUUCGGAUGCAGAGGAGGCAGGCUUUGGUGGCGCGAUAGCGCCAACGUCCUCAACCUCCAAUGCAUCCCACCACAUGAUGAUGCCUGAAUAGCAUUGGUUUUUUG [C56U G120U C124A]: the “polymerase ribozyme fitness (log ratio)” value was 1.41.

With GACCAAUCUGCCCUCAGAGCUCGAGAACAUCUUCGGAUGCAGAGGAGGCAGGCUUUGGUGGCGCGAUAGCGCCAACGUCCGCAACCUCCAAUGCAUCCCACCACAUGAUGAGGCCUGAAGAGCGUUGGUUUUUUG [C56U U81G U112G C124G], the “polymerase ribozyme fitness (log ratio)” value was -0.448.

Take GACCAAUCUGCCCUCAGAGCUCGAGAACAUCUUCGGAUGCAGAGGAGGCAGGCUUUGGUGGCGCGAUAGCGCCAACGUCCUCAACCUCCAAUGCAUCCCACCACAUGAUGAUGCCUGAAUAGCCUUGGUUUUUUG [C56U G120U]: the “polymerase ribozyme fitness (log ratio)” value worked out at 0.743.

As for GACCAAUCUGCCCUCAGAGCUCGAGAACAUCUUCGGAUGCAGAGGAGGCAGGCUUUGGUGGCGCGAUAGCGCCAACGUCCUCAACCUCCAAUGCAUCCCACCACAUGAUGAUGCCUGAACAGCCUUGGUUUUUUG [C56U G120C], the “polymerase ribozyme fitness (log ratio)” value stood at 0.793.

GACCAAUCUGCCCUCAGAGCUCGAGAACAUCUUCGGAUGCAGAGGAGGCAGGCUUUGGUGGCGCGAUAGCGCCAACGUCCUCAACCUCCAAUGCAUCCCACCACAUGAUGAUGCCUGAAAAGCCUUGGUUUUUUG [C56U G120A]: the “polymerase ribozyme fitness (log ratio)” value worked out at 0.719.

In the case of GACCAAUCUGCCCUCAGAGCUCGAGAACAUCUUCGGAUGCAGAGGAGGCAGGCUUUGGUGGCGCGAUAGCGCCAACGUCCUCAACCUCCAAUGCAGCCCACCACAUGAUGAUGCCUGAAGAGCCUUGGUUUUUUG [C56U U96G], the “polymerase ribozyme fitness (log ratio)” value was -0.658.

GACCAAUCUGCCCUCAGAGCUCGAGAACAUCUUCGGAUGCAGAGGAGGCAGGCUUUGGUGGCGCGAUAGCGCCAACGUCCUCAACCUCCAAUGCAACCCACCACAUGAUGAUGCCUGAAGAGCCUUGGUUUUUUG [C56U U96A]: the “polymerase ribozyme fitness (log ratio)” value is -1.14.

As to GACCAAUCUGCCCUCAGAGCUCGAGAACAUCUUCGGAUGCAGAGGAGGCAGGCUUUGGUGGCGCGAUAGCGCCAACGUCCUCAACCUCCAAUGCAUCCCACCACAUGAUGAUGCCUGAAGAGCCUUUGUUUUUUG [C56U G127U], the “polymerase ribozyme fitness (log ratio)” value was -0.508.

For the variant GACCAAUCUGCCCUCAGAGCUCGAGAACAUCUUCGGAUGCAGAGGAGGCAGGCUUUGGUGGCGCGAUAGCGCCAACGUCCUCAACCACCAAUGCAUCCCACCACAUGAUGAUGCCUGAAGAGGCUUGGUUUUUUG [C56U U87A C123G], the “polymerase ribozyme fitness (log ratio)” value is 1.81.

As for GACCAAUCUGCCCUCAGAGCUCGAGAACAUCUUCGGAUGCAGAGGAGGCAGGCUUUGGUGGCGCGAUAGCGCCAACGCCCUCAACCUCCAAUGCAUCCCACCACAUGAUGCUUCCUGAAGAGCCUUGGUUUUUUG [C56U U78C A111C G113U], the “polymerase ribozyme fitness (log ratio)” value was -4.24.

For the variant GACCAAUCUGCCCUCAGAGCUCGAGAACAUCUUCGGAUGCAGAGGAGGCAGGCUUUGGUGGCGCGAUAGCGCCAACGUCCUCAACCCCCAAUGCAUCCCACCACAUGAUGAUGCCUGAAGAGCCUUGGUUUUUUG [C56U U87C], the “polymerase ribozyme fitness (log ratio)” value came out at 0.555.

GACCAAUCUGCCCUCAGAGCUCGAGAACAUCUUCGGAUGCAGAGGAGGCAGGCUUUGGUGGCGCGAUAGCGCCAACGUCCUCAACCUCCAAUGCAUCCCACCACAUGAUGAUGCCUGAAGAUCCUUGGUUUUUUG [C56U G122U]: the “polymerase ribozyme fitness (log ratio)” value is -0.129.

Consider GACCAAUCUGCCCUCAGAGCUCGAGAACAUCUUCGGAUGCAGAGGAGGCAGGCUUUGGUGGCGCGAUAGCGCCAACGCCCUCAACCUCCAAUGCAUCCCACCACAAGAUGAUGCCUGAAAAGCCUUGGUUUUUUG [C56U U78C U106A G120A], for which the “polymerase ribozyme fitness (log ratio)” value came to 0.24.

For GACCAAUCUGCCCUCAGAGCUCGAGAACAUCUUCGGAUGCAGAGGAGGCAGGCUUUGGUGGCGCGAUAGCGCCAACGUCCUCAACCUCCAAUGCAUCCCACCACAUGAUGAUGCCUGAACAUCCUUGGUUUUUUG [C56U G120C G122U], the “polymerase ribozyme fitness (log ratio)” value was 1.43.

As to GACCAAUCUGCCCUCAGAGCUCGAGAACAUCUUCGGAUGCAGAGGAGGCAGGCUUUGGUGGCGCGAUAGCGCCAACGUCCUCAACCUCCAAUGCAUCCCACCACAUGAUGAUGCCUGAAGAGCCUUGGUUUUUUU [C56U G135U], the “polymerase ribozyme fitness (log ratio)” value is -1.18.

Consider GACCAAUCUGCCCUCAGAGCUCGAGAACAUCUUCGGAUGCAGAGGAGGCAGGCUUUGGUGGCGCGAUAGCGCCAACGUCCUCAACCCCCAAUGUCUCCCACCACAUGAUGAUACCUGAAGAGCCUUGGUUUUUUG [C56U U87C C94U A95C G113A], for which the “polymerase ribozyme fitness (log ratio)” value is -2.65.

As for GACCAAUCUGCCCUCAGAGCUCGAGAACAUCUUCGGAUGCAGAGGAGGCAGGCUUUGGUGGCGCGAUAGCGCCAACGACCUCAACCUCCAAUGCAUCCCACCACAUGAUGAUGCCUGAAGAGCCUUGGUUUUUUG [C56U U78A], the “polymerase ribozyme fitness (log ratio)” value was -0.32.

For the variant GACCAAUCUGCCCUCAGAGCUCGAGAACAUCUUCGGAUGCAGAGGAGGCAGGCUUUGGAGGCGCGAUAGCGCCAACGUCCUCAACCUCCAAUGCAUCCCACCACAUGAUGAUGCCUGAAGAGCCUUGGUUUUUUG [C56U U59A], the “polymerase ribozyme fitness (log ratio)” value was -0.76.

Consider GACCAAUCUGCCCUCAGAGCUCGAGAACAUCUUCGGAUGCAGAGGAGGCAGGCUUUGGUGGCGCGAUAGCGCCAACGUCCUCAACCUCCAAUGCACCCCACCACAUGAUGAUGGCUGAAGAGCCUUGGUUUUUUG [C56U U96C C114G], for which the “polymerase ribozyme fitness (log ratio)” value is -3.1.

For the variant GACCAAUCUGCCCUCAGAGCUCGAGAACAUCUUCGGAUGCAGAGGAGGCAGGCUUUGGUGGCGCGACAGCGCCAACGUCCUCAACCUCCAAUGCAUCCCACCACAUGAUGAUGCCUGAAGAGCCUUGGUUUUUUG [C56U U67C], the “polymerase ribozyme fitness (log ratio)” value was -4.67.

In the case of GACCAAUCUGCCCUCAGAGCUCGAGAACAUCUUCGGAUGCAGAGGAGGCAGGCUUUGGUGGCGCGAAAGCGCCAACGUCCUCAACCUCCAAUGCAUCCCACCACAUGAUGAUGCCUGAAGAGCCUUGGUUUUUUG [C56U U67A], the “polymerase ribozyme fitness (log ratio)” value was -5.79.

(Values after the RNAGym collection of RNA variant scans (doi:10.1073/pnas.2313332121).)
